Reference: patent publication US20030204066A1 (published 2003)

T1: human lymphotoxin (TNFβ) (human, UniProt P01374 35-205, limits assumed)
T1 sequence (looked up): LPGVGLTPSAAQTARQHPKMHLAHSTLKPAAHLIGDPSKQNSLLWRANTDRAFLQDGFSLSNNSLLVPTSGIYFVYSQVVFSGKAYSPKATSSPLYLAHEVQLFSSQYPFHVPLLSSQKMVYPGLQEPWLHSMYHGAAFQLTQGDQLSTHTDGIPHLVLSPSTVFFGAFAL

B1: p55-sf2 (p55 TNF receptor / IgG1 heavy chain single fusion with truncated light chain JCK) (Fc fusion)
chain 1: QVCPQGKYIHPQNNSICCTKCHKGTYLYNDCPGPGQDTDCRECESGSFTASENHLRHCLSCSKCRKEMGQVEISSCTVDRDTVCGCRKNQYRHYWSENLFQCFNCSLCLNGTVHLSCQEKQNTVCTCHAGFFLRENECVSCSNCKKSLECTKLCLPQIGTLVTVSS
chain 2: GTKLEIK
B2: p55-df2 (double fusion: p55 on both the IgG1 heavy chain and the kappa light chain) (Fc fusion)
chain 1: B1 chain 1
chain 2: DSVCPQGKYIHPQNNSICCTKCHKGTYLYNDCPGPGQDTDCRECESGSFTASENHLRHCLSCSKCRKEMGQVEISSCTVDRDTVCGCRKNQYRHYWSENLFQCFNCSLCLNGTVHLSCQEKQNTVCTCHAGFFLRENECVSCSNCKKSLECTKLCLPQIGTKLEIK
B3: p75P-sf2 (p75 amino acids 1-182 / IgG1 heavy chain fusion) (Fc fusion)
chain 1: QLPAQVAFTPYAPEPGSTCRLREYYDQTAQMCCSKCSPGQHAKVFCTKTSDTVCDSCEDSTYTQLWNWVPECLSCGSRCSSDQVETQACTREQNRICTCRPGWYCALSKQEGCRLCAPLRKCRPGFGVARPGTETSDVVCKPCAPGTFSNTTSSTDICRPHQICNVVAIPGNASMDAVCTSTSGTLVTVSS
chain 2: GTKLEIK
B4: p75-sf2 (complete p75 extracellular domain / IgG1 heavy chain fusion) (Fc fusion)
chain 1: QLPAQVAFTPYAPEPGSTCRLREYYDQTAQMCCSKCSPGQHAKVFCTKTSDTVCDSCEDSTYTQLWNWVPECLSCGSRCSSDQVETQACTREQNRICTCRPGWYCALSKQEGCRLCAPLRKCRPGFGVARPGTETSDVVCKPCAPGTFSNTTSSTDICRPHQICNVVAIPGNASMDAVCTSTSPTRSMAPGAVHLPQPVSTRSQHTQPTPEPSTAPSTSFLLPMGPSPPAEGSTGDGTLVTVSS
chain 2: GTKLEIK

Assays:
[1] = biological target: human tumor necrosis factor-α (TNFα) (human, UniProt P01375 77-233); test: cell-based or functional assay
human lymphotoxin (TNFβ) = biological target: T1, human lymphotoxin (TNFβ); test: cell-based or functional assay

human tumor necrosis factor-α (TNFα), sequence (P01375 77-233): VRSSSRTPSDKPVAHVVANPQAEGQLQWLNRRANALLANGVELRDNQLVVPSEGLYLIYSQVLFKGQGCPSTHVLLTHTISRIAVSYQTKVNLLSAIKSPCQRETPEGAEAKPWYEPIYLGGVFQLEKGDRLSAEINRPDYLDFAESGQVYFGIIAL

Row | Binder | IC50 = concentration of fusion protein required to inhibit 2 ng/ml (39.2 pM) TNFα by 50% (WEHI 164 cytotoxicity) [1] [pM] | amount needed for the same inhibition of TNFβ cytotoxicity, against p75P-sf2 (human lymphotoxin (TNFβ))
1 | B1 | 70 | –
2 | B2 | 55 | –
3 | B3 | 70 | –
4 | B4 | – | 3 fold (against p75P-sf2)
